Laboratory results taken from patent publication US20050025760A1 (KEIO UNIVERSITY, published 2005).

What was measured:
Assay in all cases: immunoprecipitation of point-mutated molecules (FIG. 5)
Dsg3-M2 = molecular target: T1, Dsg3-M2 (human, UniProt P32926 50-615, T31N; K33Q; I34V)
T1 construct: extracellular domain; also called point-mutated human Dsg3 molecule M2; not shown: His tag of vector pEVmod-His
T1 sequence (looked up): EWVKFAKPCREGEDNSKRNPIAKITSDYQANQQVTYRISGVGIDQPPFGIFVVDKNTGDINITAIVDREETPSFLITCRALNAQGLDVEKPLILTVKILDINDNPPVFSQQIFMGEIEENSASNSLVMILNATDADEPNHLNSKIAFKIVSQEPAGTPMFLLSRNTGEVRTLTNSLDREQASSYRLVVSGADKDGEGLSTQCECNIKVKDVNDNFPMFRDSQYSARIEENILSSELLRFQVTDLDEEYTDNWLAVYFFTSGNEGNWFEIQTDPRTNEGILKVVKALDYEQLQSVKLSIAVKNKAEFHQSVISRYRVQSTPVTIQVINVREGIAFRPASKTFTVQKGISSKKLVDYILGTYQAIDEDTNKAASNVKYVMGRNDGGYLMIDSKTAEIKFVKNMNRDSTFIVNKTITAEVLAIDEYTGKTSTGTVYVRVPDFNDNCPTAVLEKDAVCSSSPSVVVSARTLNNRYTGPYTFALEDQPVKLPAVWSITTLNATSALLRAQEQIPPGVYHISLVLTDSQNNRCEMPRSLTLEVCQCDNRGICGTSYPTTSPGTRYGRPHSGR

Dsg3-M5 = molecular target: T2, Dsg3-M5 (human, UniProt P32926 50-615, L75I; T77Y)
T2 construct: extracellular domain; also called point-mutated human Dsg3 molecule M5; not shown: His tag of vector pEVmod-His
T2 sequence (looked up): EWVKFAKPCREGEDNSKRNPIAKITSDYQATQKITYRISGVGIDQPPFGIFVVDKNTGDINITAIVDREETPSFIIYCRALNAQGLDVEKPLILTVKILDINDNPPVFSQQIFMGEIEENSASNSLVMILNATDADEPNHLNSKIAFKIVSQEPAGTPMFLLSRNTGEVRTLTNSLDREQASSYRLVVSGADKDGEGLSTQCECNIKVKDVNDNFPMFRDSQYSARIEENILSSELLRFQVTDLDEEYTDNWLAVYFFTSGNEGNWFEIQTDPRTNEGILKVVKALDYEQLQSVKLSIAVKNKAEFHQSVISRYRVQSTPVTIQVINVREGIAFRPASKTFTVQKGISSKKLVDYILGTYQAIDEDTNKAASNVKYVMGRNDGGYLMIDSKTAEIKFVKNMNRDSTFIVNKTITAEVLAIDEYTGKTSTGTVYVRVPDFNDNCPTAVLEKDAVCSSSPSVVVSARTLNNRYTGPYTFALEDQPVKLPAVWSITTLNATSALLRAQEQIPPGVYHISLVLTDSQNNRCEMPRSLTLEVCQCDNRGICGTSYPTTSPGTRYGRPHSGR

Dsg3-M3 = molecular target: T3, Dsg3-M3 (human, UniProt P32926 50-615, V53I; D54N; K55Q; N56K)
T3 construct: extracellular domain; also called point-mutated human Dsg3 molecule M3; not shown: His tag of vector pEVmod-His
T3 sequence (looked up): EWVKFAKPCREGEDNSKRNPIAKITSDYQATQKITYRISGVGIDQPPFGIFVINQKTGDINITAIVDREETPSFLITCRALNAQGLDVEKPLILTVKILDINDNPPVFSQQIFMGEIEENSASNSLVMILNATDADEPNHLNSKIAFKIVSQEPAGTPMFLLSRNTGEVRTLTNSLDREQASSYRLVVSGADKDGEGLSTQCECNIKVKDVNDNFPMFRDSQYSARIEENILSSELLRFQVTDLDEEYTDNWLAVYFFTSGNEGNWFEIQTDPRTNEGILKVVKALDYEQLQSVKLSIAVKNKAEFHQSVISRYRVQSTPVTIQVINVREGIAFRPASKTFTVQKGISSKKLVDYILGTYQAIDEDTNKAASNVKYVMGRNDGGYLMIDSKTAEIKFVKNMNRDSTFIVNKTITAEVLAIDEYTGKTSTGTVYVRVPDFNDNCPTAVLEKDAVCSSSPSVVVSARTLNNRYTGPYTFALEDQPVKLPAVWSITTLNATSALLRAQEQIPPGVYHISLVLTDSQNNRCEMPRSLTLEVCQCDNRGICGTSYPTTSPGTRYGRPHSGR

Dsg3-M4 = molecular target: T4, Dsg3-M4 (human, UniProt P32926 50-615, E70V; S73F)
T4 construct: extracellular domain; also called point-mutated human Dsg3 molecule M4; not shown: His tag of vector pEVmod-His
T4 sequence (looked up): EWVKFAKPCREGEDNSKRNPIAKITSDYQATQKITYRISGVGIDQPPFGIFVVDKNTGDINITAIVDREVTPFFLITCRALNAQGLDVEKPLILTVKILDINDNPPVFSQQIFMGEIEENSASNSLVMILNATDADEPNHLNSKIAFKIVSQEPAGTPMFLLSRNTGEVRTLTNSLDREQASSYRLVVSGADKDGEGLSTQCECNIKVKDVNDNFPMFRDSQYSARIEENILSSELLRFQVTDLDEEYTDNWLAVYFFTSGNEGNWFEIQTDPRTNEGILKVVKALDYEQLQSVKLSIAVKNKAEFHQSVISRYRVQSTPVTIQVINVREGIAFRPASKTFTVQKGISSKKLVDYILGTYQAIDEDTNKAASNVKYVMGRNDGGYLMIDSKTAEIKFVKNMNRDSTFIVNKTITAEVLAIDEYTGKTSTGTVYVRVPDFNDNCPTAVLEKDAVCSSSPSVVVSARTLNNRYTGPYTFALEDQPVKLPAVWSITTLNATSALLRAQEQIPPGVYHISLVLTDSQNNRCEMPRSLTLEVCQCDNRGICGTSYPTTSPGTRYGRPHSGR

Measured: binding result

B1: anti-Dsg3 monoclonal antibody AK23 (antibody, mouse IgG1, V domains shown)
VH: QVQLQQSGTELVKPGASVKLSCKSSGYTFTSYWINWVKQRPGQGLEWIGNINPSNGGINYNEKFKSKATLTVDKSSSTAYMQLKSLTSEDSAVYYCARGGYDGYPWGQGTTVTVS
VL: DIQMTQSPKFLLVSAGDRVTITCKASQSVSYDVAWYQQKPGQSPKLLISYASNRYTGVPDRFTGSGYGSDFTFTISTVQTEDLAVYFCQQDYSSPWTFGGGTKLELKR
notes: Mouse IgG1 kappa hybridoma antibody
binds: all assays above
